Source: article doi:10.64898/2025.12.15.693380 (bioRxiv, 2025)

Biological target: the molecule itself
Assay: cryo-EM structure

B1: full-length human NCBE (Na+-dependent Cl-/HCO3- exchanger, SLC4A10) (natural protein, UniProt Q6U841 1-1118, looked up)
chain: MEIKDQGAQMEPLLPTRNDEEAVVDRGGTRSILKTHFEKEDLEGHRTLFIGVHVPLGGRKSHRRHRHRGHKHRKRDRERDSGLEDGRESPSFDTPSQRVQFILGTEDDDEEHIPHDLFTELDEICWREGEDAEWRETARWLKFEEDVEDGGERWSKPYVATLSLHSLFELRSCILNGTVLLDMHANTLEEIADMVLDQQVSSGQLNEDVRHRVHEALMKQHHHQNQKKLTNRIPIVRSFADIGKKQSEPNSMDKNAGQVVSPQSAPACVENKNDVSRENSTVDFSKGLGGQQKGHTSPCGMKQRHEKGPPHQQEREVDLHFMKKIPPGAEASNILVGELEFLDRTVVAFVRLSPAVLLQGLAEVPIPTRFLFILLGPLGKGQQYHEIGRSIATLMTDEVFHDVAYKAKDRNDLVSGIDEFLDQVTVLPPGEWDPSIRIEPPKNVPSQEKRKIPAVPNGTAAHGEAEPHGGHSGPELQRTGRIFGGLILDIKRKAPYFWSDFRDAFSLQCLASFLFLYCACMSPVITFGGLLGEATEGRISAIESLFGASMTGIAYSLFGGQPLTILGSTGPVLVFEKILFKFCKEYGLSYLSLRASIGLWTATLCIILVATDASSLVCYITRFTEEAFASLICIIFIYEALEKLFELSEAYPINMHNDLELLTQYSCNCVEPHNPSNGTLKEWRESNISASDIIWENLTVSECKSLHGEYVGRACGHDHPYVPDVLFWSVILFFSTVTLSATLKQFKTSRYFPTKVRSIVSDFAVFLTILCMVLIDYAIGIPSPKLQVPSVFKPTRDDRGWFVTPLGPNPWWTVIAAIIPALLCTILIFMDQQITAVIINRKEHKLKKGCGYHLDLLMVAVMLGVCSIMGLPWFVAATVLSITHVNSLKLESECSAPGEQPKFLGIREQRVTGLMIFILMGSSVFMTSILKFIPMPVLYGVFLYMGASSLKGIQFFDRIKLFWMPAKHQPDFIYLRHVPLRKVHLFTIIQMSCLGLLWIIKVSRAAIVFPMMVLALVFVRKLMDLLFTKRELSWLDDLMPESKKKKLEDAEKEEEQSMLAMEDEGTVQLPLEGHYRDDPSVINISDEMSKTALWRNLLITADNSKDKESSFPSKSSPS
- stoichiometry N: 2
